Measured values published in patent CN114891097A (INST MICROBIOLOGY CAS, dated 2022).

Molecular target: SARS-CoV-2 RBD-hFc蛋白 (SARS-CoV-2 RBD fused to a human Fc tag) (SARS-CoV-2; human)

B1: S43纳米抗体 (alpaca-derived nanobody S43, with C-terminal 6xHis tag) (VHH)
VHH: QVQLQESGGGLVQPGGSLRLTCAPSGFTLDYYAIGWFRQAPGKEREGVSCISSNNSTYYADSVKGRFTISRDNAKNTVYLQMNSLKPEDTAVYYCAAEPDYSGVYYYTCGWTDFGSWGQGTQVTVSS
Q: How did the Kd turn out when B1 was run?
A: 120 pM
